The target in one data set is T1, Rev-erbα (mouse, UniProt Q3UV55 1-615).
T1 sequence: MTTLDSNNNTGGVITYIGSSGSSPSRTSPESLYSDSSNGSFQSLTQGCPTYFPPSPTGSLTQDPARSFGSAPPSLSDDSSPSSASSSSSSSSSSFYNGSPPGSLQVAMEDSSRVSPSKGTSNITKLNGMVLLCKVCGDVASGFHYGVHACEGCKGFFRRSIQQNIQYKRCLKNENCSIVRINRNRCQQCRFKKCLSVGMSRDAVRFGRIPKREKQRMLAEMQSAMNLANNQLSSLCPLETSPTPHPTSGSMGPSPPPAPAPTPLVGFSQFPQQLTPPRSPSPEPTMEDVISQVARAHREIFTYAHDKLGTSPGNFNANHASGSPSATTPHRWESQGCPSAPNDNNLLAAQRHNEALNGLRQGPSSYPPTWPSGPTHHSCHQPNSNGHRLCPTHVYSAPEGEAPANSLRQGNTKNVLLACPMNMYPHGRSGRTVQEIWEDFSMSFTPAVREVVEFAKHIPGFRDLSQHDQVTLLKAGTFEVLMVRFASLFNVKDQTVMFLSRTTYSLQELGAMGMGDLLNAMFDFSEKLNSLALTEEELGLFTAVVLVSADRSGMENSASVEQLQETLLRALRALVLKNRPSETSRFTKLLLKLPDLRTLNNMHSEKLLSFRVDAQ
As to the kind of experiment: EMSA.

For the next data set, the target named is T2, RORα (mouse, UniProt P51448 1-523).
T2 sequence: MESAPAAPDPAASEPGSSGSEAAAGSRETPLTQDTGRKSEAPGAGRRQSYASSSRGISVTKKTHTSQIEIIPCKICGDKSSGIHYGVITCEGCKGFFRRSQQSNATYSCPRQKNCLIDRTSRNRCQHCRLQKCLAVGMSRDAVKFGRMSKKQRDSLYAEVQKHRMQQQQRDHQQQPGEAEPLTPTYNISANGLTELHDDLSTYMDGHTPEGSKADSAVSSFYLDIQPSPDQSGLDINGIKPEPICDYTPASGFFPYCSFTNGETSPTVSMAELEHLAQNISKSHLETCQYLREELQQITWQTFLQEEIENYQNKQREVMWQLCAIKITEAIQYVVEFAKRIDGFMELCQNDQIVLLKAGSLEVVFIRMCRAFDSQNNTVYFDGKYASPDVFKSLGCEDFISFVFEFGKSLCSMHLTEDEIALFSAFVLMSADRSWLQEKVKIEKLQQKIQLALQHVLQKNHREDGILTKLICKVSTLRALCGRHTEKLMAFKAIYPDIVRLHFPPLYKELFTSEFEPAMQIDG
As to the kind of experiment: EMSA. A general note: In EMSA bound probe runs differently from free probe, usually more slowly.

B1: mut h-RRE1 (dsDNA)
DNA 1: TTCCTCAACAGCCGATACATTGTTTC
DNA 2: GAAACAATGTATCGGCTGTTGAGGAA
Regarding B1, the binding result with Rev-erbα and with RORα was “no binding” throughout.

B2: mut h-RRE2 (dsDNA)
DNA 1: TCACCTGCTTGACGGCTTGACAGACCG
DNA 2: CGGTCTGTCAAGCCGTCAAGCAGGTGA
As to B2, the binding result with Rev-erbα and in the data set with RORα was “no binding” in each case.

The values above are taken from publication PMC11296239.
